Laboratory results published in patent publication WO2008044032A2 (dated 2008).

Target: T1, CD20 on the CD20+ human Daudi Burkitt lymphoma cell line (human, UniProt P11836 1-297)
T1 construct: whole, on cells; also called Daudi cells
T1 sequence (looked up): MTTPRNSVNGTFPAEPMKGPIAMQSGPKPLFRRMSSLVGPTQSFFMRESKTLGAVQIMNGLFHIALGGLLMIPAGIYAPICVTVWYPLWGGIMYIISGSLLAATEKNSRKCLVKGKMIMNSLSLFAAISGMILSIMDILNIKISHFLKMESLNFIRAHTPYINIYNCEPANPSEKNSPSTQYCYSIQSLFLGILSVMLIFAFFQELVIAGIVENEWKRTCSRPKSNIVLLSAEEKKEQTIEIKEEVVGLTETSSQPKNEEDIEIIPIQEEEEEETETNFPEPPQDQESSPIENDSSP
Experiment: FACS binding assay on CD20+ Daudi cells, serial dilutions of antibody

- binding result: binds
B1: chimeric anti-CD20 antibody (unmodified chimeric Leu 16) (antibody, human IgG1, V domains shown)
VH: EVQLQQSGAELVKPGASVKMSCKASGYTFTSYNMHWVKQTPGQGLEWIGAIYPGNGDTSYNQKFKGKATLTADKSSSTAYMQLSSLTSEDSADYYCARSNYYGSSYWFFDVWGAGTTVTVSS
VL: DIVLTQSPAILSASPGEKVTMTCRASSSVNYMDWYQKKPGSSPKPWIYATSNLASGVPARFSGSGSGTSYSLTISRVEAEDAATYYCQQWSFNPPTFGGGTKLEIK
notes: Only the variable regions are printed
